Laboratory results taken from publication PMC11040377.

Biological target: Lag3 (lymphocyte-activation gene 3), on transfected SH-SY5Y cells (not stated (human or mouse cDNA cloned)) (UniProt Q61790)
Assay: cell surface binding assay (streptavidin-alkaline phosphatase staining); SH-SY5Y cells transfected with Lag3 or its deletion mutants; biotin-labelled ligand at different concentrations (monomer equivalent) in DMEM with 10% FBS, 2 h at RT; washed, fixed, bound biotin detected with streptavidin-AP and BCIP/NBT; intensity by ImageJ, KD by GraphPad Prism

Sequence of Lag3 (lymphocyte-activation gene 3), on transfected SH-SY5Y cells (not stated (human or mouse cDNA cloned)) (Q61790 24-521): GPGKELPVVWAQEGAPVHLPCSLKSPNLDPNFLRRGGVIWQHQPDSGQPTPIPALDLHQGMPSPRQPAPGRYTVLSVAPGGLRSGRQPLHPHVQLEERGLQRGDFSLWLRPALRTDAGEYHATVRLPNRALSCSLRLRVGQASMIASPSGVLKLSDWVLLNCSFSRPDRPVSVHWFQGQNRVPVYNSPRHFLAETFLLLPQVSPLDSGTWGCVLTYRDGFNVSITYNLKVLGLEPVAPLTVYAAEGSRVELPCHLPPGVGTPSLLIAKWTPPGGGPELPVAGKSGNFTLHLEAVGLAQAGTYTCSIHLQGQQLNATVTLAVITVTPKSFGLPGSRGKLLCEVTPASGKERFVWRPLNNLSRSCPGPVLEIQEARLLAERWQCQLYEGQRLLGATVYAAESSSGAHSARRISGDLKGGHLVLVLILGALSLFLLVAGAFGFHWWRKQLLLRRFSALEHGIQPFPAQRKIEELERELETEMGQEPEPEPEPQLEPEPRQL

Q: For “Tau PFF derived from PSP (progressive supranuclear palsy) seeds”, which Kd is on record?
A: Its Kd is 227 nM.
